Like-named read-outs stand apart in the source and are kept apart here.

One may read the Kd as the free concentration of one partner at which half of the binding sites on the other are occupied at equilibrium, for simple one-to-one binding.

The chains are these.
B1: MBP-fused full-length ER cytoplasmic domain (MBP-ER_CD) (domain or fragment, Arabidopsis, UniProt Q42371 602-976, looked up)
chain: CRPHNPPPFLDGSLDKPVTYSTPKLVILHMNMALHVYEDIMRMTENLSEKYIIGHGASSTVYKCVLKNCKPVAIKRLYSHNPQSMKQFETELEMLSSIKHRNLVSLQAYSLSHLGSLLFYDYLENGSLWDLLHGPTKKKTLDWDTRLKIAYGAAQGLAYLHHDCSPRIIHRDVKSSNILLDKDLEARLTDFGIAKSLCVSKSHTSTYVMGTIGYIDPEYARTSRLTEKSDVYSYGIVLLELLTRRKAVDDESNLHHLIMSKTGNNEVMEMADPDITSTCKDLGVVKKVFQLALLCTKRQPNDRPTMHQVTRVLGSFMLSEQPPAATDTSATLAGSCYVDEYANLKTPHSVNCSSMSASDAQLFLRFGQVISQNSE
notes: ERECTA (ER) LRR receptor kinase, Arabidopsis; full-length cytoplasmic domain (juxtamembrane domain, kinase domain, C-terminal tail); source: expressed and purified (recombinantly purified)

For experiment [1], the target named is T1, GST-PUB30 (plant U-box E3 ligase PUB30) (Arabidopsis, UniProt Q058P4 1-448).
T1 construct: U-box E3 ubiquitin ligase PUB30, Arabidopsis; source: recombinantly purified
T1 sequence (looked up): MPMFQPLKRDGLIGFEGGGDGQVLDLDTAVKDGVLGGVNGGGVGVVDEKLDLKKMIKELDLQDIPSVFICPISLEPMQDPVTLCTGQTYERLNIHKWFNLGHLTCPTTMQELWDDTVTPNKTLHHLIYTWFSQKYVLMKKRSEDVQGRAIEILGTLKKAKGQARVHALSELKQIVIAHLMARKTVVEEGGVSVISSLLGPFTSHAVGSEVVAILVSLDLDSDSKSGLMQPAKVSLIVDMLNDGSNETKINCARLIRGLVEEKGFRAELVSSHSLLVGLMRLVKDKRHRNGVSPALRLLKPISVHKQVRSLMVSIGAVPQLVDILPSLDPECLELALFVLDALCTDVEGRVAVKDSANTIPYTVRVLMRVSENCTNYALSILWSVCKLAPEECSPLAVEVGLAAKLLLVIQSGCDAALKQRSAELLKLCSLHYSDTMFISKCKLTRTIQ
The experiment in a line: BLI; recombinantly purified GST-BKI1 or GST-PUB30 and MBP-ER_CD variants at seven concentrations (156.25, 312.5, 625, 1,250, 2,500, 5,000 and 10,000 nM); representative of three independent experiments.

In experiment [2] the target is GST-BKI1 (BRI1 KINASE INHIBITOR 1) (Arabidopsis) (UniProt Q9FMZ0). The experiment is described as above.
Experiment [3] has as its target T2, MBP-ER_CD_(T/S8A), phosphonull version (Arabidopsis, UniProt Q42371 602-976, Thr947 (T/S8A) | Ser950 (T/S8A) | Ser954 (T/S8A) | Ser955 (T/S8A) | Ser957 …).
T2 sequence: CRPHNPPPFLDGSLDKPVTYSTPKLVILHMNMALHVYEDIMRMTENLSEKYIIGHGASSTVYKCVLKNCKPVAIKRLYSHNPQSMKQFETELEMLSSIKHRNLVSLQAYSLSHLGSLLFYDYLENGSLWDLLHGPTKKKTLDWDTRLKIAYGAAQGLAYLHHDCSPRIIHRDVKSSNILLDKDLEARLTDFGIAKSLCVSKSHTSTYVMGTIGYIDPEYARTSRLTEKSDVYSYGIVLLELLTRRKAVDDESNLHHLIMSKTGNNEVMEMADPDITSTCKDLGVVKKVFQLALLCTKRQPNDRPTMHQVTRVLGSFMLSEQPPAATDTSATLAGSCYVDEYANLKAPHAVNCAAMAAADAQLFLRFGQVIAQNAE
As to the kind of experiment: BLI. On the technique in general: In BLI a coated tip is dipped into the sample, and binding shifts an interference pattern.

For experiment [4], the target named is T3, MBP-ER_CD_(T/S8E), phosphomimetic version (Arabidopsis, UniProt Q42371 602-976, Thr947 (T/S8E) | Ser950 (T/S8E) | Ser954 (T/S8E) | Ser955 (T/S8E) | Ser957 …).
T3 sequence: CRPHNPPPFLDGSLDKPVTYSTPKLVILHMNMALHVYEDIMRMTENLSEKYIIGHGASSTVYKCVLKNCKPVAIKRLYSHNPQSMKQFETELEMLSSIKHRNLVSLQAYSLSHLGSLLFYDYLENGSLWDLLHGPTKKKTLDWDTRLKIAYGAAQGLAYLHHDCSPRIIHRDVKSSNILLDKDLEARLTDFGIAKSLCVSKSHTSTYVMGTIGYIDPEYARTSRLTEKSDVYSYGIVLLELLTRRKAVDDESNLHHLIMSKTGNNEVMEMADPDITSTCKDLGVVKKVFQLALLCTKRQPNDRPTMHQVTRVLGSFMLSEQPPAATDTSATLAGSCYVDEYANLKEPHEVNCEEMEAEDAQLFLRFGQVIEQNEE
As to the kind of experiment: BLI.

Experiment [5] addresses B1. As to the kind of experiment: BLI; recombinantly purified GST-BKI1 or GST-PUB30 and MBP-ER_CD variants at seven concentrations (156.25, 312.5, 625, 1,250, 2,500, 5,000 and 10,000 nM); representative of three independent experiments. As to conditions: both partners purified.
Experiment [6] deals with T4, MBP-ER_CD_(T/S8A), phosphonull version (Arabidopsis, UniProt Q42371 602-976, Thr947 (T/S8A) | Ser950 (T/S8A) | Ser954 (T/S8A) | Ser955 (T/S8A) | Ser957 …).
T4 construct: ERECTA (ER), Arabidopsis; The eight sites: six detected (Thr947, Ser950, Ser954, Ser955, Ser957, Ser972); source: recombinantly purified
T4 sequence (looked up): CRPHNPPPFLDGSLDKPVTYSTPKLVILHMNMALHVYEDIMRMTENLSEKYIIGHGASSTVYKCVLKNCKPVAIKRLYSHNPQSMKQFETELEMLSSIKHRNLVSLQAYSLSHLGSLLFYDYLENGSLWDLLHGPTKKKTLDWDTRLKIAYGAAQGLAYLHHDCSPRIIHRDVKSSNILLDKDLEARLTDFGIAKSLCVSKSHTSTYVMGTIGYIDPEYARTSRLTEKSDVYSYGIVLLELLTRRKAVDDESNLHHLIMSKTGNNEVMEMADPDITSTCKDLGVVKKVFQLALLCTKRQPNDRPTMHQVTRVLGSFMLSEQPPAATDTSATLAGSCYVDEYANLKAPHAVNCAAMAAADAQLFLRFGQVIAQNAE
The description is as above. As to conditions: both partners purified.

For the molecule “MBP-ER_CD_(ΔCTα-Helix) (domain or fragment)”, the Kd is 0.805 µM in experiment [1] and 47.7 µM in experiment [2].
B1: in experiment [1] (both partners purified), the Kd amounted to 0.393 ± 0.048 µM.

B2: GST-BKI1 (BRI1 KINASE INHIBITOR 1) (natural protein, Arabidopsis, UniProt Q9FMZ0 1-337, looked up)
chain: METNLQQVKNSSQTFSEKQNPKQEASPSPISSTCSSPSHDFSFTISLQPLSSSSKHISPTLRSPSKTTSSYQQTDPFAVDLSPADEIFFHGHLLPLHLLSHLPVSPRTSTGSYNDGFTLPVKDILPDQPTNNNNNTENAITNISTEAKDDNTEDKAEGEIRVKTKPIKSFSLFGLSKWRKGFESNEREQEQQQQKIKKPMSLDLSHAVKKYIRMLFQKRGNGTQFWNRRQTSSYSFSSSLMGPNGNSKTMINGSYNKRDLIRGRRGELFSAPASMRTSPTNSGHLRVSTAGLSSSSGSTSSSSSDSTMEELQAAIQAAIAHCKNSSAVDRDDKVKDS
notes: source: recombinantly purified
In the case of B2, the Kd in experiment [3] worked out at 3.8 µM; in experiment [4], 18 µM; in experiment [5], 3.7 ± 0.7 µM. In experiment [6], the binding result is “binds”.

B3: MBP-ER_CD_(T/S8E), phosphomimetic version (domain or fragment, Arabidopsis, UniProt Q42371 602-976, looked up)
chain: CRPHNPPPFLDGSLDKPVTYSTPKLVILHMNMALHVYEDIMRMTENLSEKYIIGHGASSTVYKCVLKNCKPVAIKRLYSHNPQSMKQFETELEMLSSIKHRNLVSLQAYSLSHLGSLLFYDYLENGSLWDLLHGPTKKKTLDWDTRLKIAYGAAQGLAYLHHDCSPRIIHRDVKSSNILLDKDLEARLTDFGIAKSLCVSKSHTSTYVMGTIGYIDPEYARTSRLTEKSDVYSYGIVLLELLTRRKAVDDESNLHHLIMSKTGNNEVMEMADPDITSTCKDLGVVKKVFQLALLCTKRQPNDRPTMHQVTRVLGSFMLSEQPPAATDTSATLAGSCYVDEYANLKEPHEVNCEEMEAEDAQLFLRFGQVIEQNEE
notes: ERECTA (ER), Arabidopsis; source: recombinantly purified
On to B3, for which the binding result in experiment [1] (both partners purified) is “binds”.

B4: GST-PUB30 (plant U-box E3 ligase PUB30) (enzyme)
chain: MPMFQPLKRDGLIGFEGGGDGQVLDLDTAVKDGVLGGVNGGGVGVVDEKLDLKKMIKELDLQDIPSVFICPISLEPMQDPVTLCTGQTYERLNIHKWFNLGHLTCPTTMQELWDDTVTPNKTLHHLIYTWFSQKYVLMKKRSEDVQGRAIEILGTLKKAKGQARVHALSELKQIVIAHLMARKTVVEEGGVSVISSLLGPFTSHAVGSEVVAILVSLDLDSDSKSGLMQPAKVSLIVDMLNDGSNETKINCARLIRGLVEEKGFRAELVSSHSLLVGLMRLVKDKRHRNGVSPALRLLKPISVHKQVRSLMVSIGAVPQLVDILPSLDPECLELALFVLDALCTDVEGRVAVKDSANTIPYTVRVLMRVSENCTNYALSILWSVCKLAPEECSPLAVEVGLAAKLLLVIQSGCDAALKQRSAELLKLCSLHYSDTMFISKCKLTRTIQ
On to B4, for which the figures for the Kd in experiment [3] and in experiment [4] were 9.5 µM and 0.194 µM, respectively.

These data come from doi:10.1101/2024.09.20.612365, “Preventing Inappropriate Signals Pre- and Post-Ligand Perception by a Toggle-Switch Mechanism of ERECTA” (bioRxiv, 2024).
